Laboratory results as given in ChEMBL document CHEMBL2074453, “Role of multidrug resistance protein 1 (MRP1) and glutathione S-transferase A1-1 in alkylating agent resistance. Kinetics of glutathione conjugate formation and efflux govern differential cellular sensitivity to chlorambucil versus melphalan toxicity” (J Biol Chem, 2001).

Assays:
[1] = substrate: NC(Cc1ccc(N(CCCl)CCSC[C@H](NC(=O)CC[C@H](N)C(=O)O)C(=O)NCC(=O)O)cc1)C(=O)O; experiment: TP_TRANSPORTER: uptake in membrane vesicle from MCF7/VP cells; type: functional, cell membranes
[2] = substrate: NC(CCC(=O)NC(CSCCN(CCCl)c1ccc(CCCC(=O)O)cc1)C(=O)NCC(=O)O)C(=O)O; experiment: TP_TRANSPORTER: uptake in membrane vesicle from MCF/VP cells; type: functional, cell membranes

B1: Multidrug resistance-associated protein 1 (Homo sapiens) (protein)
chain: MALRGFCSADGSDPLWDWNVTWNTSNPDFTKCFQNTVLVWVPCFYLWACFPFYFLYLSRHDRGYIQMTPLNKTKTALGFLLWIVCWADLFYSFWERSRGIFLAPVFLVSPTLLGITMLLATFLIQLERRKGVQSSGIMLTFWLVALVCALAILRSKIMTALKEDAQVDLFRDITFYVYFSLLLIQLVLSCFSDRSPLFSETIHDPNPCPESSASFLSRITFWWITGLIVRGYRQPLEGSDLWSLNKEDTSEQVVPVLVKNWKKECAKTRKQPVKVVYSSKDPAQPKESSKVDANEEVEALIVKSPQKEWNPSLFKVLYKTFGPYFLMSFFFKAIHDLMMFSGPQILKLLIKFVNDTKAPDWQGYFYTVLLFVTACLQTLVLHQYFHICFVSGMRIKTAVIGAVYRKALVITNSARKSSTVGEIVNLMSVDAQRFMDLATYINMIWSAPLQVILALYLLWLNLGPSVLAGVAVMVLMVPVNAVMAMKTKTYQVAHMKSKDNRIKLMNEILNGIKVLKLYAWELAFKDKVLAIRQEELKVLKKSAYLSAVGTFTWVCTPFLVALCTFAVYVTIDENNILDAQTAFVSLALFNILRFPLNILPMVISSIVQASVSLKRLRIFLSHEELEPDSIERRPVKDGGGTNSITVRNATFTWARSDPPTLNGITFSIPEGALVAVVGQVGCGKSSLLSALLAEMDKVEGHVAIKGSVAYVPQQAWIQNDSLRENILFGCQLEEPYYRSVIQACALLPDLEILPSGDRTEIGEKGVNLSGGQKQRVSLARAVYSNADIYLFDDPLSAVDAHVGKHIFENVIGPKGMLKNKTRILVTHSMSYLPQVDVIIVMSGGKISEMGSYQELLARDGAFAEFLRTYASTEQEQDAEENGVTGVSGPGKEAKQMENGMLVTDSAGKQLQRQLSSSSSYSGDISRHHNSTAELQKAEAKKEETWKLMEADKAQTGQVKLSVYWDYMKAIGLFISFLSIFLFMCNHVSALASNYWLSLWTDDPIVNGTQEHTKVRLSVYGALGISQGIAVFGYSMAVSIGGILASRCLHVDLLHSILRSPMSFFERTPSGNLVNRFSKELDTVDSMIPEVIKMFMGSLFNVIGACIVILLATPIAAIIIPPLGLIYFFVQRFYVASSRQLKRLESVSRSPVYSHFNETLLGVSVIRAFEEQERFIHQSDLKVDENQKAYYPSIVANRWLAVRLECVGNCIVLFAALFAVISRHSLSAGLVGLSVSYSLQVTTYLNWLVRMSSEMETNIVAVERLKEYSETEKEAPWQIQETAPPSSWPQVGRVEFRNYCLRYREDLDFVLRHINVTINGGEKVGIVGRTGAGKSSLTLGLFRINESAEGEIIIDGINIAKIGLHDLRFKITIIPQDPVLFSGSLRMNLDPFSQYSDEEVWTSLELAHLKDFVSALPDKLDHECAEGGENLSVGQRQLVCLARALLRKTKILVLDEATAAVDLETDDLIQSTIRTQFEDCTVLTIAHRLNTIMDYTRVIVLDKGEIQEYGAPSDLLQQRGLFYSMAKDAGLV
- Km [1]: 1.14 µM
- Km [2]: 0.37 µM
